Data on 25 sequences can be found in a protein production outcome set (Wang et al. 2014).

A short description of the data set: label from the status in PepcDB records.
In the case of “SSCGNDESDPDSTVTIAMATVEKQPQYDAPYLVLDNGEKLWVVQHIVPYRDLKAGERIFGNYSFLEAGESGFAYNIRLNDYTLVPVQKIIGLNPDNMDSIGNMKVQIKDMWPSDDYLNVRFMLNFPSPQKPILNLVVNEMIPWTKDGYAHLELRYNNNGSQGRLVPGMVSFKLDDYSPENSELKGIKVLVNPVDGEEKTYIFSYPLTGEDVPGFNPLDLAELK”, the protein production result was “not failed”.

As for “SSEANSNSEFQTFIEQENQKAAIQAAISKLTETCWDKCVGKPGSKLDRAESECIANCAERFLDSSSFIMQRLMKKQ”, the protein production result is reported as “not failed”.

Consider “SSFQSTTGHCVHMRGLPYRATENDIYNFFSPLNPMRVHIEIGPDGRVTGEADVEFATHEDAVAAMAKDKANMQHRYVELFLNSTAGTSG”, for which the protein production result is “not failed”.

For “SSPQHLLVGGSGWNKIAIINKDTKEIVWEYPLEKGWECNSVAATKAGEILFSYSKGAKMITRDGRELWNIAAPAGCEMQTARILPDGNALVAWCGHPSTILEVNMKGEVLSKTEFETGIERPHAQFRQINKNKKGNYLVPLFATSEVREIAPNGQLLNSVKLSGTPFSSAFLDNGDCLVACGDAHCFVQLNLESNRIVRRVNANDIEGVQLFFVAQLFPLQNGGLYICNWQGHDREAGKGKHPQLVEIDSEGKVVWQLNDKVKFGMISTICPIRE”, the protein production entry is on record as “not failed”.

Regarding “SSPVPFGPEGRLEDKLHKPKATQTEVKPSVRFNLRTSKDPEHEGCYLSVGHSQPLEDCSFNMTAKTFFIIHGWTMSGIFENWLHKLVSALHTREKDANVVVVDWLPLAHQLYTDAVNNTRVVGHSIARMLDWLQEKDDFSLGNVHLIGYSLGAHVAGYAGNFVKGTVGRITGLDPAGPMFEGADIHKRLSPDDADFVDVLHTYTRSFGLSIGIQMPVGHIDIYPNGGDFQPGCGLNDVLGSIAYGTITEVVKCEHERAVHLFVDSLVNQDKPSFAFQCTDSNRFKKGICLSCRKNRCNSIGYNAKKMRNKRNSKMYLKTRAGMPFRVYHYQMKIHVFSYKNMGEIEPTFYVTLYGTNADSQTLPLEIVERIEQNATNTFLVYTEEDLGDLLKIQLTWEGASQSWYNLWKEFRSYLSQPRNPGRELNIRRIRVKSGETQRKLTFCTEDPENTSISPGQELWFRKCRDGWRMKNETSPTVELP”, the protein production entry was “not failed”.

For the sequence “SSQWHHPRSGWGRRRDFSGRSSAKKKGGNHIPERWKDYLPVGQRMPGTRFIAFKVPLQKSFEKKLAPEECFSPLDLFNKIREQNEELGLIIDLTYTQRYYKPEDLPETVPYLKIFTVGHQVPDDETIFKFKHAVNGFLKENKDNDKLIGVHCTHGLNRTGYLICIYLIDVEGVRPDDAIELFNRCRGHCLERQNYIEDLQNGPIRKNWNSSVPRSSDFEDSAHLMQPVHNKPVKQGPRYNLHQIQGHSAPRHFHTQTQSLQQSVRKFSENPHVYQRHHLPPPGPPGEDYSHRRYSWNVKPNASRAAQDRRRWYPYNYSRLSYPACWEWTQ”, the protein production result is “not failed”.

Regarding “SSSTEVKDNVLTEEEKAEGYTLLFNGKDFTGWKMFNGGDVKGWQVEDGVIVGYGNGGDVIADTTIKVSTDIVTVKNYHNFQIKWDWKIGAQGNSGFLYHVQEGPKYKAPFETGPEYQLIDDDNYPWVSETGKEGLEDWQKTGCNYAMYVPETKQVNPPGEWNSSMVLYKDGYVEHWLNGEKLFSFQEGSEDWKMRRYSGKWEAFPDYGISTTGKLCFQDHGSKVYFKNVKIKDLD”, the protein production result is given as “not failed”.

Turning to “SSTHGSRFPLCGGRRDHKGLTHIFNPPPKRFESILEGLFGPALLKDLSLFKDCEPESISDWTFDENCLFCCLRRDKVKGHLVGLDEPASGAGQEALLKQEQAKIIRFERQAEEFLNAVFYRKDSPWVSDPNIPLVAREIMQRMIQQFAAEYTSKNSSTQDPSQPNSTKNQSLPKASPVTTSPTAATTQNPVLSKLLMADQDSPLDLTVRKSQSEPSEQDGVLDLSTKKSPCAGSTSLSHSPGCSSTQGNGRPGRPSQYRPDGLRSGDGVPPRSLQDGTREGFGHSTSLKVPLARSLQISEELLSRNQLSTAASLGPSGLQNHGQHLILSREASWAKPHYEFNLSRMKFRGNGALSNISDLPFLAENSAFPKMALQAKQDGKKDVSHSSPVDLKIPQVRGMDLSWESRTGDQYSYSSLVMGSQTESALSKKLRAILPKQSRKSMLDAGPDSWGSDAEQSTSGQPYPTSDQEGDPGSKQPRKKRGRYRQYNSEILEEAISVVMSGKMSVSKAQSIYGIPHSTLEYKVKERLGTLKNPPKKKMKLMRSEGPDVSVKIELDPQGEAAQSANESKNE”, the protein production entry is “not failed”.

Turning to “SSVVKSIELVLPEDRIYLAGSSIKGQVILTLNSTLVDPIVKVELVGRGYVEWSEEAGASCDYSRNVICNNKADYVHKTKTFPVEDNWLSAGSHTFDFHFNLPPRLPSTFTSKFGHVFYFVQASCMGREHILAKKRMYLLVQGTSTFHKETPFQNPLFVEAEEKVSYNCCRQGTVCLQIQMERNTFTPGEKVVFTTEINNQTSKCIKTVVFALYAHIQYEGFTPSAERRSRLDSSELLRQEANTPVTRFNTTKVVSTFNLPLLLSVSSSTQDGEIMHTRYELVTTVHLPWSLTSLKAKVPIIITSASVDSAICQLSEDGVLPVNPDHQN”, the protein production entry is “not failed”.

As to “STERRRDELSEEINNLREKVMKQSEENNNLQSQVQKLTEENTTLREQVEPTPEDEDDDIELRGAAAAAAPPPPIEEECPEDLPEKFDGNPDMLAPFMAQCQIFMEKSTRDFSVDRVRVCFVTSMMTGRAARWASAKLERSHYLMHNYPAFMMEMKHVFEDPQRREVAKRKIRRLRQGMGSVIDYSNAFQMIAQDLDWNEPALIDQYHEGLSDHIQEELSHLEVAKSLSALIGQCIHIERRLARAAAARKPRSPPRALVLPHIASHHQVDPTEPVGGARMRLTQEEKERRRKLNLCLYCGTGGHYADNCPAKASKSSPAGNSPAPL”, the protein production result was “not failed”.

Consider “STMSGYLYRSKGSKKPWKHLWFVIKNKVLYTYAASEDVAALESQPLLGFTVTLVKDENSESKVFQLLHKGMVFYVFKADDAHSTQRWIDAFQEGTV”, for which the protein production result was “not failed”.

As for “STQVSQATSQPINFQVQKDGSSEKSHMDDYMQHPGKVIKQNNKYYFQTVLNNASFWKEYKFYNANNQELATTVVNDNKKADTRTINVAVEPGYKSLTTKVHIVVPQINYNHRYTTHLEFEKAIPTLADAAK”, the protein production entry is listed as “not failed”.

In the case of “STRFPGVAIYLVEPRMGRSRRAFLTGLARSKGFRVLDACSSEATHVVMEETSAEEAVSWQERRMAAAPPGCTPPALLDISWLTESLGAGQPVPVECRHRLEVAGPRKGPLSPAWMPAYAC”, the protein production entry is on record as “not failed”.

Regarding “STRRVSVRDKLLVKEVAELEANLPCTCKVHFPDPNKLHCFQLTVTPDEGYYQGGKFQFETEVPDAYNMVPPKVKCLTKIWHPNITETGEICLSLLREHSIDGTGWAPTRTLKDVVWGLNSLFTDLLNFDDPLNIEAAEHHLRDKEDFRNKVDDYIKRYAR”, the protein production entry was “not failed”.

Regarding “SVDVEFQKAVEDILRKNIKQGKQYAGSDLFDRAFVVAMDPYSGEVLALAGQKLNDKGEFDDYSLGTFTTAYAMGSAVKGSTILGGIMDGAISNKTVFTDQPIALKGTKPKSSWFNRTGAGNRPLDPVGALEISSNSYMYQVAMKMGGAKYVPNGPLRAPLSTFDDMRYYYNQFGLGVKTGIDLPGEQVGYKGDDQTIGKILDFAIGQYDSYTPLQMAQYVSTIANGGSRIAPSMVKEIRNPSTNGDSVGTLATANEPKVLNKIGVSDNDIKTVQKGFYEVTHGSTGTARTVFTSSDYDVAGKTGTADAFYDGPKEGNKMASVWNTTFVGYAPVKKPEIAISVVVPWIYRPYGTDQKTNMKISKEVFDKYFELKKERAESNKDASKVEQPINNKEAAAKAQSEQTEN”, the protein production result was “failed”.

For the sequence “TAYIIVGLTPKDAEKLQQYGARVASTLAKYSGEVLVKGSVEQLHGKFEHKAQVILEFPSREDAYNWYHSEEYQALISTRDLGMDSQFQLIG”, the protein production entry is “not failed”.

On to “TEDTFWKDETDFNLALTSCYTPLKNALNGGYYGTRGVMLRIARADEVDFRNDISDVYTVNRFTNSNTNSLTQGMFYQFYNALYRTNSIMQKLEEKKEQFSTDFQNSVKGECLFIRGFYLFQLAKEFKDAPLRLTASQSPSTFPLAKSSQADIWAQAKEDLKTAASLLPITNKIGKPTQGAAYAALGKIYVYEENWQEAINVLEPLTQNPYTYKLVEDFNWNFDDTHENNAESIFELLIEDVGGTDLWGDGENINSTQSNTRPKEYAAAEVGGWYEANPTQQIMDIFWKEKDKDGNFDYRARCSVAWDYEGCTYYQRPFREVFAQDKWKTYWILKYQNWKTQKDEPAPPKSFINERAIRYADVLLMLAEAYMNKGALDTSIGYINQIRRRANLNDYSGPITKEGVFEDLVHQRAIEFFVEGERFYDLRRWGLLEQTLKTCDDTRYKNYQTGKSDNINKFNYFPIPAKELDTNPLCTPSEGW”, for which the protein production result is “not failed”.

As for “TEERLKEIEAKYDEIAKDWPKKVKHVLHEEHELELTRVQVYTCDKCEEEGTIWSYHCDECDFDLHAKCALNEDTKE”, the protein production entry is on record as “not failed”.

On to “TEQGLQKVLQRLVQTMQRDALVRQTTNQLRESLQVDRVVLYYFYWQWHGQVTFEALSSEEFSILGSTGADECFNDEYAALYLAGRTKAIADIESEPITTCHRDFLRTLQVRANLVVPVLVPKGLWGLLVAHHCQGTHDWKESDIELMQAGAKTLA”, for which the protein production entry is given as “failed”.

In the case of “TFEEDDNMERAAVTGIAFDKNQARINVRGVPDKPGVAYQILGAVADANIEVDMIIQNVGSEGTTDFSFTVPRGDYKQTLEILSERQDSIGAASIDGDDTVCKVSAVGLGMRSHVGVAAKIFRTLAEEGINIQMISTSEIKVSVLIDEKYMELATRVLHKAFNLG”, the protein production result is “not failed”.

As to “TFGEKLLNAASTRGRLCVGIDPHESLLTSWGLPVNVDGLAEFSRACVEAFADTVALVKPQVAFYERFGSAGFAILEETIQTLRERGCLVVSDAKRGDIGSTMAGYASAWLDPASPLSSDAVTVSPYLGFHSLDPVFELAEQHGRGVFVLAATSNPEARELQDQQNADGVSISQQIVDQAAALNAPYMAQGKAGNIGVVIGATLSKPPRLSTLGGAILMPGVGAQGGTASDVDEIAGDMAHLAFPNVSRSILATGPDIAEMKNSVAKNAADFPGFP”, the protein production entry is reported as “not failed”.

As for “TGQGWMLNLRREKFQDPKVREALNLMFNFEWSNQTLFYGLYTRVDSFWENSYLEAEGAPSEAEAALLKPLVDEGLLPASILTEPPVSPPVSGERQLDRRNLRAASKLLDEAGWTVGSDGMRRNAKGEVLRVEFLNDSQTFDRVISPFVENLRALGVDALMTRVDNAQMESRTRPPSYDFDITTGNARTNYISGAELKQYYGSETADISAFNIMGLKDKAVDRMIEVVLAAKTSEELEVATKALDRVLRLQRFWVPQWYKA”, the protein production result is given as “failed”.

Take “THVVCSDSGLEVLYQSCDPLQDFGFSVEKCSKQLKSNINIRFGIILREDIKELFLDLALMSQGSSVLNFSYPICEAALPKFSFCGRRKGEQIYYAGPVNNPEFTIPQGEYQVLLELYTEKRSTVACANATIMCS”: the protein production result is recorded as “not failed”.

“TIAFIVNKNLLHGSEIPKSWADLKTGKYKVSIGDVSTAAQAANGVLAASFAMKGDESNIEPGLALFTDLAKQKRLSLANPTIQTIEKGEIEVGVVWDFNGLSYRTKMAKPDDYVVLIPSDGSVISGYTTIINKYAKHPNAAKLAREYTFSDAGQ”: the protein production entry is listed as “failed”.

On to “TIDLRMQQYAEEAMVKQMKEVLQPIFDKEKRGRSYAPFSRDITSDEQRSILLRAMKQTDRWREMKKAGISESEIRASFNKKRKMQVWNWRGTIDTVMSPLDSIKYLKGILRTGFMAMNPHNGHIKAYVGGINFRNFQYDMVSQGRRQVGSTIKPFLYSLSMLEGISPCDEMLHVSQTLFTESGKAWTPKNTGARRTGEMVSIKWGLQNSSNWVTAYLMGRTSPYTFVRLLRSYGLSGYLEPSLSICLGTPDVSVQEMVSAYTTFVNKGIRVNPLPITRIEDQYGNVVAQFSPNMVEVLPPDAAYKMLYMLKSVVDGGTGSRLRYRYGFKLDMGGKTGTTQNNSDGWFVGFTPSLVAGCWVGGEDRSVHFDSMSNGQGAASALPIFAEFLKRVYADPKLGYTTE”, for which the protein production entry is listed as “failed”.
